Measurements: the supplement of paper PMC12042874
± gives the uncertainty stated by the source.

Assay: amyloid nucleation score (Sup35N fusion, yeast selection) (log enrichment); library NNK1; higher = more nucleation; inactive = no reads after selection
Summary of the method: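 Peptides of 20 random codons, each fused to Sup35N, were expressed in psi-negative yeast. Cells were induced with 100 μM copper sulfate for 24 hours and grown 7 days at 30°C on medium lacking adenine and uracil, and plasmid inserts before and after selection were Illumina-sequenced. Nucleation scores are DiMSum log enrichments of output over input reads, centred on the mode score of non-aggregating sequences, and sequences under 100 input reads were excluded.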
In the case of VCLQW, the amyloid nucleation score is reported as 0.386 ± 0.64. With VCLSC the amyloid nucleation score was 2.03 ± 0.41. VCRGGSSFLLNTKLVNT gave an amyloid nucleation score of 0.675 ± 0.33. VCSKGACSLGDVNCDSTDVG gave an amyloid nucleation score of 0.104 ± 0.63. VCSSLFSSCPL showed an amyloid nucleation score of 0.735 ± 0.37. For VDHISCCVFVMAVHMELALR, the amyloid nucleation score was -1.07 ± 1.8. VDLDSVR gave an amyloid nucleation score of -0.236 ± 0.48. Substance VDNMLPFMGDYWDLFYGFLL has an amyloid nucleation score of -0.217 ± 0.31. For VDRLNFLSLSYENFSGSSGE, the amyloid nucleation score was 4.7 ± 0.064. With VDRQFTDEFKVFTEGTKVDE the amyloid nucleation score was -0.5 ± 1.4. For VDVAVVDTNLSLNMACKGWT, the amyloid nucleation score was 1.21 ± 0.45. Substance VDVRNWCIWDWKGLSAGVGG has an amyloid nucleation score of -0.643 ± 0.41. In the case of VEDAIDACKFNCDSIDMTTD, the amyloid nucleation score is reported as -0.206 ± 0.75. With VERLAT the amyloid nucleation score was -0.259 ± 0.73. In the case of VESFYVSIFGGGLRLKCSKS, the amyloid nucleation score is reported as 0.514 ± 0.46. With VETSGVILVESWCFMLGIDV the amyloid nucleation score was 0.724 ± 0.75. For VFADVISIKMNCTLLTSILL, the amyloid nucleation score was 0.823 ± 0.37. In the case of VFESIVNGQVMMTLN, the amyloid nucleation score is reported as -1.92 ± 2.4. VFESWKFELRVWIVVTFLHG gave an amyloid nucleation score of 0.21 ± 0.52. VFGVKVRDCASANGVFGWSS gave an amyloid nucleation score of -0.14 ± 1.4. With VFGVVSFLHDFNFGKAYFAV the amyloid nucleation score was 0.191 ± 0.4. Substance VFIQMGHELDFQCEE has an amyloid nucleation score of 0.527 ± 0.63. With VFLIAWGLFSRMC the amyloid nucleation score was 4.54 ± 0.11. For VFLISY, the amyloid nucleation score was 0.199 ± 0.42. Work on VFLSADDVSGPRVDAVSGYS yielded an amyloid nucleation score of 0.713 ± 0.5. VFNCWCLTEFFVMYGIVCQK gave an amyloid nucleation score of 4.52 ± 0.1. Work on VFNFT yielded an amyloid nucleation score of -0.816 ± 1.9. For VFPALLNISRLISKTQCSQV, the amyloid nucleation score was -0.978 ± 0.99. With VFRPGRSSDCNLSMLVQRVW the amyloid nucleation score was 4.18 ± 0.088. For VFSKHRFSIYCSRYAEPTTR, the amyloid nucleation score was 0.002 ± 0.31. In the case of VFTLPLDWQKRCGYDSLRFP, the amyloid nucleation score is reported as 0.018 ± 0.44. VFTSAD gave an amyloid nucleation score of 0.093 ± 0.39. For VGCKP, the amyloid nucleation score was -0.24 ± 0.75. VGCLMWYALCGLE gave an amyloid nucleation score of 0.347 ± 0.5. Substance VGCSRIDDPRSGAEALRSYC has an amyloid nucleation score of 1.08 ± 0.78. Work on VGELYFIVWMDLLLVGWDGR yielded an amyloid nucleation score of 0.897 ± 0.53. In the case of VGHPKVFWDGVGSRTILERS, the amyloid nucleation score is reported as 0.48 ± 0.74. With VGLDLALSYHFAQG the amyloid nucleation score was 4.8 ± 0.087. VGLFVFSMSLGLAD gave an amyloid nucleation score of -1.55 ± 0.51. With VGLINHYSSSNMLG the amyloid nucleation score was 0.161 ± 0.62. Work on VGLLEAFMLRGDSRRCD yielded an amyloid nucleation score of -1.25 ± 2.1. VGLLMKTACSWAGSVTDRCM showed an amyloid nucleation score of 2.62 ± 0.14. With VGLLSISLMYQRTASTGYFS the amyloid nucleation score was 0.615 ± 0.28. For VGMYGSVSFMS, the amyloid nucleation score was -1.02 ± 0.89. Work on VGQLSTFCLGILIVLSVN yielded an amyloid nucleation score of 0.338 ± 0.18. With VGRLGVEG the amyloid nucleation score was -0.305 ± 0.25. Work on VGSLGM yielded an amyloid nucleation score of -0.221 ± 0.37. VGTDLNETVG showed an amyloid nucleation score of -0.646 ± 1.5. VGVRRDTCSPRQVLGHTS gave an amyloid nucleation score of 0.301 ± 0.52. VGWASQKINYWLETSGF showed an amyloid nucleation score of 0.329 ± 0.68. For VGWGAMQGLMSGGLYIPV, the amyloid nucleation score was -0.671 ± 2.1. With VGYEVLSHYDAGIVSLVYLS the amyloid nucleation score was 0.645 ± 0.53. Work on VHAHVSREIFTGQ yielded an amyloid nucleation score of 0.659 ± 1. Substance VHASYIVRIRHLSGILEGAV has an amyloid nucleation score of 0.369 ± 0.46. In the case of VHESTSHRMWRSLI, the amyloid nucleation score is reported as 1.15 ± 0.41. With VHFQYFLMLKLAQFVVVWNK the amyloid nucleation score was 0.669 ± 0.84. For VHGGAWLTGGSRTGAQFIAV, the amyloid nucleation score was -0.402 ± 0.59. With VIFSNWVTAGFACFMHLLVR the amyloid nucleation score was 0.398 ± 0.9. For VIGLVLARLYFVQIEVLLHR, the amyloid nucleation score was 1.24 ± 0.61. Substance VIKMFRRSDDIVVSKPLRE has an amyloid nucleation score of -0.3 ± 0.5. Work on VILLILNYYSHWDVLLK yielded an amyloid nucleation score of -0.111 ± 0.4. For VILTYGTVRY, the amyloid nucleation score was 0.38 ± 0.59. With VILWRSRIASRCPTLM the amyloid nucleation score was -0.415 ± 1.4. For VIRCRKFRTVWILFLAISLV, the amyloid nucleation score was “inactive”. Substance VIRRLRSTYMSDMLLEGGLA has an amyloid nucleation score of 0.864 ± 0.56. In the case of VISGVCFSDIFLDVPTLWLW, the amyloid nucleation score is reported as 0.393 ± 0.3. VITIGMFCRIIEGHYVMYLT showed an amyloid nucleation score of 0.089 ± 0.47. VIVHIWRET gave an amyloid nucleation score of 3.92 ± 0.11. For VIVQKSLS, the amyloid nucleation score was -0.086 ± 0.61. VIVWGSRSFLGC gave an amyloid nucleation score of 3.49 ± 0.1. VIVWVWSCVM showed an amyloid nucleation score of 6.247 ± 0.055. For VIYFLRYHLFNSLVSPHNRR, the amyloid nucleation score was “inactive”. In the case of VKCGLG, the amyloid nucleation score is reported as 0.696 ± 0.84. Work on VKFKGTTLCYIFDMDFMHGI yielded an amyloid nucleation score of 0.948 ± 0.14. For VKLAVREVTSEMPREKLTVA, the amyloid nucleation score was 0.236 ± 0.26. Substance VKQSST has an amyloid nucleation score of 0.212 ± 0.66. Work on VKRHNLLCWRFMDFTINLGG yielded an amyloid nucleation score of 4.01 ± 0.13. Substance VKSGALKYRKIGAYGTGSRL has an amyloid nucleation score of 0.728 ± 1.2. With VKSRYLFRCSLLFEHDTGIC the amyloid nucleation score was 0.01 ± 0.23. In the case of VKTPSVRIKWDVISLSLPCA, the amyloid nucleation score is reported as 0.156 ± 0.53. In the case of VKYGDSRLADAWNFVSNK, the amyloid nucleation score is reported as -0.476 ± 0.3. In the case of VLEYPSTSAARFSHRVKRK, the amyloid nucleation score is reported as 8.434 ± 0.047. Substance VLGRRKMIQVNFNFKYLSWD has an amyloid nucleation score of 1.62 ± 0.45. VLIGSLLCN gave an amyloid nucleation score of 0.878 ± 0.41. For VLIMYYGCLDDFLLRDYSLL, the amyloid nucleation score was 0.856 ± 0.67. In the case of VLKGNKRRVLNAWVAYVLRS, the amyloid nucleation score is reported as 0.273 ± 0.35.
